Measurements from paper PMC7418079.

Molecular target: Enterovirus D68 virion, B1 clade isolate US/MO/14–18947 (Enterovirus D68)

B1: mAb EV68–159 (antibody, V domains shown)
VH: EVQLVESGGGLVKPGGLRLSCAASGFTFSTYIMTWVRQAPGRGLEWVSSISTSSVYTFYADSLKGRFTISRDNAKNSVYLQMNSLRADDTAVYYCAREEGFRAYNLYWGQGTLVTVSS
VL: QSVLTQPPSASGTPGQRVTISCSGSSSNIEYNYVYWYQKFPGTAPKLLIYKNNQRPSGVPDRFSGSKSGTSASLAISGLRSEDEGDYYCAAWDDILSGVVFGGGTKLTVL
IC50 of neutralisation of a B1 clade EV-D68 isolate, CCID50 assay on RD cells: 0.32 ng/mL
